Experimental data reported in patent US20170298096A1 (CANIMGUIDE THERAPEUTICS, published 2017).
No end group written: not given here.

B1: P28R S11D (peptide)
peptide: KKLDTFFVKLDLFTER
B2: P28R T14N (peptide)
peptide: KKLDTFFVKLSLFNER
B3: P28R S11W (peptide)
peptide: KKLDTFFVKLWLFTER
B4: P28R T5E (peptide)
peptide: KKLDEFFVKLSLFTER
B5: P28R T5I (peptide)
peptide: KKLDIFFVKLSLFTER
B6: P28R V8S (peptide)
peptide: KKLDTFFSKLSLFTER
B7: P28R T14V (peptide)
peptide: KKLDTFFVKLSLFVER
B8: P28R T14A (peptide)
peptide: KKLDTFFVKLSLFAER
B9: P28R V8T (peptide)
peptide: KKLDTFFTKLSLFTER
B10: P28R T14H (peptide)
peptide: KKLDTFFVKLSLFHER
B11: P28R T14R (peptide)
peptide: KKLDTFFVKLSLFRER
B12: P28R T5M (peptide)
peptide: KKLDMFFVKLSLFTER
B13: P28R T5A (peptide)
peptide: KKLDAFFVKLSLFTER
B14: P28R T5R (peptide)
peptide: KKLDRFFVKLSLFTER
B15: P28R T5S (peptide)
peptide: KKLDSFFVKLSLFTER
B16: P28R T14K (peptide)
peptide: KKLDTFFVKLSLFKER
B17: P28R V8M (peptide)
peptide: KKLDTFFMKLSLFTER
B18: P28R T14M (peptide)
peptide: KKLDTFFVKLSLFMER
B19: P28R S11Y (peptide)
peptide: KKLDTFFVKLYLFTER
B20: P28R V8N (peptide)
peptide: KKLDTFFNKLSLFTER
B21: P28R S11M (peptide)
peptide: KKLDTFFVKLMLFTER
B22: P28R S11T (peptide)
peptide: KKLDTFFVKLTLFTER
B23: P28R T14W (peptide)
peptide: KKLDTFFVKLSLFWER
B24: P28R T5D (peptide)
peptide: KKLDDFFVKLSLFTER
B25: P28R S11R (peptide)
peptide: KKLDTFFVKLRLFTER
B26: P28R S11N (peptide)
peptide: KKLDTFFVKLNLFTER
B27: P28R V8E (peptide)
peptide: KKLDTFFEKLSLFTER
B28: P28R T5N (peptide)
peptide: KKLDNFFVKLSLFTER
B29: P28R S11L (peptide)
peptide: KKLDTFFVKLLLFTER
B30: P28R V8K (peptide)
peptide: KKLDTFFKKLSLFTER
notes: also called P27; SCF27
B31: P28R V8I (peptide)
peptide: KKLDTFFIKLSLFTER
B32: P28R V8H (peptide)
peptide: KKLDTFFHKLSLFTER
B33: P28R S11Q (peptide)
peptide: KKLDTFFVKLQLFTER
B34: P28R T14I (peptide)
peptide: KKLDTFFVKLSLFIER
B35: P28R T5Q (peptide)
peptide: KKLDQFFVKLSLFTER
B36: P28R S11H (peptide)
peptide: KKLDTFFVKLHLFTER
B37: P28R T14Q (peptide)
peptide: KKLDTFFVKLSLFQER
B38: P28R T5F (peptide)
peptide: KKLDFFFVKLSLFTER
B39: P28R S11E (peptide)
peptide: KKLDTFFVKLELFTER
B40: P28R T5V (peptide)
peptide: KKLDVFFVKLSLFTER
B41: P28R V8Q (peptide)
peptide: KKLDTFFQKLSLFTER
B42: P28R T5H (peptide)
peptide: KKLDHFFVKLSLFTER
B43: P28R S11I (peptide)
peptide: KKLDTFFVKLILFTER
B44: P28R T5L (peptide)
peptide: KKLDLFFVKLSLFTER
B45: P28R V8R (peptide)
peptide: KKLDTFFRKLSLFTER
B46: P28R S11K (peptide)
peptide: KKLDTFFVKLKLFTER
B47: P28R V8D (peptide)
peptide: KKLDTFFDKLSLFTER
B48: P28R T14S (peptide)
peptide: KKLDTFFVKLSLFSER
B49: P28R S11F (peptide)
peptide: KKLDTFFVKLFLFTER
B50: P28R T14D (peptide)
peptide: KKLDTFFVKLSLFDER
B51: P28R T14L (peptide)
peptide: KKLDTFFVKLSLFLER
B52: P28R T5K (peptide)
peptide: KKLDKFFVKLSLFTER
B53: P28R V8Y (peptide)
peptide: KKLDTFFYKLSLFTER
B54: P28R T14F (peptide)
peptide: KKLDTFFVKLSLFFER
B55: P28R T5Y (peptide)
peptide: KKLDYFFVKLSLFTER
B56: P28R T14Y (peptide)
peptide: KKLDTFFVKLSLFYER
B57: P28R T14E (peptide)
peptide: KKLDTFFVKLSLFEER
B58: P28R V8F (peptide)
peptide: KKLDTFFFKLSLFTER
B59: P28R S11V (peptide)
peptide: KKLDTFFVKLVLFTER
B60: P28R T5W (peptide)
peptide: KKLDWFFVKLSLFTER
B61: P28R V8L (peptide)
peptide: KKLDTFFLKLSLFTER
B62: P28R V8W (peptide)
peptide: KKLDTFFWKLSLFTER
B63: P28R V8A (peptide)
peptide: KKLDTFFAKLSLFTER
B64: SEQ ID NO 3 (peptide)
peptide: RKLDTFFVKLSLFTER
B65: SEQ ID NO 8 (peptide)
peptide: KKLDTVFVKLSLFTER
B66: SEQ ID NO 6 (peptide)
peptide: KKLDQFFVKLSLFTER
B67: SEQ ID NO 11 (peptide)
peptide: KKLDTFVVKLSLFTER
B68: SEQ ID NO 4 (peptide)
peptide: KKGDTFFVKLSLFTER
B69: SEQ ID NO 5 (peptide)
peptide: KKEDTFFVKLSLFTER
B70: SEQ ID NO 7 (peptide)
peptide: KKLDTAFVKLSLFTER

Target: T1, His-tagged P3028 (human, not fully specified)
T1 construct: the tag is put first after 'PGE73=His-tag-P3028'; also called PGE73; not shown: His-tag
T1 peptide: {His‑tag}-VFDEFKPLVEEPQNLIK
Test: chip ELISA

Which ELISA signal does the source give for B1 here?
The ELISA signal was 322.

How did the ELISA signal turn out when B2 was run?
The ELISA signal was 599.

B3 was tested. Which ELISA signal did it give?
Its ELISA signal is 324.

How did the ELISA signal turn out when B4 was run?
Its ELISA signal is 341.

How did the ELISA signal turn out when B5 was run?
Its ELISA signal is 293.

With B6 as the binder, how does the ELISA signal read?
Its ELISA signal is 216.

B7 was tested. Which ELISA signal did it give?
Its ELISA signal is 380.

Which ELISA signal does the source give for B8 here?
The ELISA signal was 305.

B9 was tested. Which ELISA signal did it give?
Its ELISA signal is 298.

How did the ELISA signal turn out when B10 was run?
Its ELISA signal is 463.

B11 was tested. Which ELISA signal did it give?
Its ELISA signal is 264.

How did the ELISA signal turn out when B12 was run?
Its ELISA signal is 475.

For B13, which ELISA signal is on record?
Its ELISA signal is 346.

With B14 as the binder, how does the ELISA signal read?
Its ELISA signal is 430.

For B15, which ELISA signal is on record?
Its ELISA signal is 458.

For B16, which ELISA signal is on record?
The ELISA signal was 259.

With B17 as the binder, how does the ELISA signal read?
The ELISA signal was 221.

Which ELISA signal does the source give for B18 here?
Its ELISA signal is 501.

How did the ELISA signal turn out when B19 was run?
Its ELISA signal is 402.

With B20 as the binder, how does the ELISA signal read?
Its ELISA signal is 203.

Which ELISA signal does the source give for B21 here?
The ELISA signal was 744.

How did the ELISA signal turn out when B22 was run?
The ELISA signal was 520.

How did the ELISA signal turn out when B23 was run?
Its ELISA signal is 374.

How did the ELISA signal turn out when B24 was run?
Its ELISA signal is 295.

With B25 as the binder, how does the ELISA signal read?
Its ELISA signal is 333.

Which ELISA signal does the source give for B26 here?
The ELISA signal was 451.

B27 was tested. Which ELISA signal did it give?
The ELISA signal was 139.

B28 was tested. Which ELISA signal did it give?
The ELISA signal was 436.

B29 was tested. Which ELISA signal did it give?
The ELISA signal was 213.

For B30, which ELISA signal is on record?
Its ELISA signal is 253.

For B31, which ELISA signal is on record?
The ELISA signal was 401.

B32 was tested. Which ELISA signal did it give?
The ELISA signal was 213.

How did the ELISA signal turn out when B33 was run?
The ELISA signal was 768.

B34 was tested. Which ELISA signal did it give?
Its ELISA signal is 375.

B35 was tested. Which ELISA signal did it give?
The ELISA signal was 535.

For B36, which ELISA signal is on record?
Its ELISA signal is 535.

With B37 as the binder, how does the ELISA signal read?
Its ELISA signal is 301.

How did the ELISA signal turn out when B38 was run?
Its ELISA signal is 290.

With B39 as the binder, how does the ELISA signal read?
The ELISA signal was 234.

How did the ELISA signal turn out when B40 was run?
The ELISA signal was 374.

How did the ELISA signal turn out when B41 was run?
The ELISA signal was 271.

How did the ELISA signal turn out when B42 was run?
Its ELISA signal is 391.

Which ELISA signal does the source give for B43 here?
The ELISA signal was 289.

With B44 as the binder, how does the ELISA signal read?
Its ELISA signal is 311.

B45 was tested. Which ELISA signal did it give?
The ELISA signal was 365.

B46 was tested. Which ELISA signal did it give?
Its ELISA signal is 323.

With B47 as the binder, how does the ELISA signal read?
Its ELISA signal is 122.

B48 was tested. Which ELISA signal did it give?
The ELISA signal was 369.

For B49, which ELISA signal is on record?
Its ELISA signal is 250.

B50 was tested. Which ELISA signal did it give?
Its ELISA signal is 159.

How did the ELISA signal turn out when B51 was run?
Its ELISA signal is 360.

With B52 as the binder, how does the ELISA signal read?
The ELISA signal was 237.

With B53 as the binder, how does the ELISA signal read?
The ELISA signal was 211.

How did the ELISA signal turn out when B54 was run?
The ELISA signal was 348.

How did the ELISA signal turn out when B55 was run?
Its ELISA signal is 425.

How did the ELISA signal turn out when B56 was run?
Its ELISA signal is 270.

Which ELISA signal does the source give for B57 here?
The ELISA signal was 110.

For B58, which ELISA signal is on record?
Its ELISA signal is 358.

B59 was tested. Which ELISA signal did it give?
Its ELISA signal is 392.

For B60, which ELISA signal is on record?
Its ELISA signal is 418.

Which ELISA signal does the source give for B61 here?
The ELISA signal was 411.

For B62, which ELISA signal is on record?
The ELISA signal was 228.

How did the ELISA signal turn out when B63 was run?
The ELISA signal was 299.

Target: T2, His-tagged P3028 (human, also: His-tag, terminus and sequence not given here)
T2 construct: used in solution in the PEPSCAN (rampo) ELISA; also called PGE73; His-tag-P3028; not shown: His tag
T2 peptide: VFDEFKPLVEEPQNLIK
Test: PEPSCAN ELISA (rampo)

Which rampo value does the source give for B64 here?
The rampo value was > 500 rampo units.

How did the rampo value turn out when B65 was run?
Its rampo value is > 500 rampo units.

How did the rampo value turn out when B66 was run?
Its rampo value is > 500 rampo units.

How did the rampo value turn out when B67 was run?
The rampo value was > 500 rampo units.

For B68, which rampo value is on record?
Its rampo value is > 500 rampo units.

B69 was tested. Which rampo value did it give?
Its rampo value is > 500 rampo units.

How did the rampo value turn out when B70 was run?
Its rampo value is > 500 rampo units.
